# Measured values published in patent US12006513B2, “Methods for the long-term expansion of granulocyte-macrophage progenitors and applications thereof” (University of Southern California, priority 2018, dated 2024).
# Assays:
# [1] = system: bone marrow cells isolated from adult C57BL/6 mice; assay: Small molecule library screens on bone marrow cells in serum free N2B27 medium; format: cell-based, mouse; conditions: second screening, together with GDC0879
# mouse GMP = assay: Granulocyte differentiation of ex vivo expanded GMPs; format: cell-based; conditions: RPMI 1640+10% FBS, 20 ng/mL GCSF, 72 h
# Procedure: Long-term ex vivo expanded GMPs can differentiate into functional and mature granulocytes. Granulocyte colony-stimulating factor (G-CSF) is a known hematopoietic growth factor that regulates neutrophils production in the bone marrow. G-CSF was used to induce mouse GMP differentiation towards the neutrophil lineage. After culturing for 3 weeks in E7^+SCF/GDC/CHIR conditions, GMPs were re-plated in RPMI 1640+10% FBS medium and stimulated with 20 ng/mL of GCSF. Seventy-two hours after stimulation with GCSF, GMPs differentiated into cells that morphologically resembled granulocytes (e.g., see FIG. 3F). To further verify the identity of these cells, the cells were harvested and stained with Gr1 and CD115 antibodies and analyzed by flow cytometer. Granulocytes are Gr1^+ and CD115^−.
# ex vivo expanded GMPs = assay: Macrophage differentiation of ex vivo expanded GMPs; format: cell-based, mouse; conditions: RPMI 1640+10% FBS+20 ng/mL MCSF, 7 days
# Procedure: FIG. 3A-I presents results of macrophages differentiation from GMPs. […] P7 GMPs were cultured in RPMI 1640+10% FBS+20 ng/mL MCSF for 7 days. Mature macrophages were re-plated, fixed and stained for CD11b and F4/80. (B) Provides the results of an in vitro functional test of the differentiated macrophages. 1×10^5 GMPs (P7) or 1×10^6 whole BM cells were seeded into 1 well of 6-well plate in RPMI 1640+10% FBS+20 ng/mL MCSF. 7 days later, mature bone marrow-derived macrophages (BMM) and GMP-derived macrophages (GMPM) were trypsinized, counted and reseeded into 48-well plate at 1×10^5 cells per well in RPMI 1640+10% FBS. After overnight, cells were stimulated with 500 ng/mL LPS for 6 or 24 h. The inflammatory cytokines in the supernatant were measured by ELISA. (C) Provides images of another in vitro functional test of the differentiated macrophages. Green: E. coli-GFP. Red: tdTomato^+ macrophages. Top image, GFP labeled E. coli were co-cultured with tdTomato^+ GMPs-derived macrophages. Consecutive pictures were taken each 30′ under Zeiss LSM-780 confocal microscope for 1 h. […] (E), cells were harvested and FITC positive cells were analyzed by using BD Arial flow cytometry. […]
# Long-term ex vivo expanded GMPs can differentiate into functional and mature macrophages. […] After 6 or 24 h, the supernatant was harvested and the concentrations of inflammatory cytokines TNFα, IL6 and IL10 by ELISA were measured.
molecule,measurement,setting,value
O=C(NCCCn1ccnc1)c1cc(-c2ccco2)on1 [SKL2001],expansion of the uniform round-shaped cells,[1],acted synergistically with GDC0879 to promote the expansion
"GCSF: granulocyte colony-stimulating factor, used at 20 ng/mL for granulocyte differentiation (protein, UniProt P09919 31-207, looked up) Granulocyte …: TPLGPASSLPQSFLLKCLEQVRKIQGDGAALQEKLVSECATYKLCHPEELVLLGHSLGIPWAPLSSCPSQALQLAGCLSQLHSGLFLYQGLLQALEGISPELGPTLDTLQLDVADFATTIWQQMEELGMAPALQPTQGAMPAFASAFQRRAGGVLVASHLQSFLEVSYRVLRHLAQP",cells derived from GMPs that were Gr1+ CD115−,mouse GMP,more than 80%
"MCSF: macrophage colony-stimulating factor, used at 20 ng/mL for macrophage differentiation (protein, UniProt P09603 33-554, looked up) Macrophage colony-stimulating …: EEVSEYCSHMIGSGHLQSLQRLIDSQMETSCQITFEFVDQEQLKDPVCYLKKAFLLVQDIMEDTMRFRDNTPNAIAIVQLQELSLRLKSCFTKDYEEHDKACVRTFYETPLQLLEKVKNVFNETKNLLDKDWNIFSKNCNNSFAECSSQDVVTKPDCNCLYPKAIPSSDPASVSPHQPLAPSMAPVAGLTWEDSEGTEGSSLLPGEQPLHTVDPGSAKQRPPRSTCQSFEPPETPVVKDSTIGGSPQPRPSVGAFNPGMEDILDSAMGTNWVPEEASGEASEIPVPQGTELSPSRPGGGSMQTEPARPSNFLSASSPLPASAKGQQPADVTGTALPRVGPVRPTGQDWNHTPQKTDHPSALLRDPPEPGSPRISSLRPQGLSNPSTLSAQPQLSRSHSSGSVLPLGELEGRRSTRDRRSPAEPEGGPASEGAARPLPRFNSVPLTDTGHERQSEGSFSPQLQESVFHLLVPSVILVLLAVGGLLFYRWRRRSHQEPQRADSPLEQPEGSPLTQDDRQVELPV",cells expressing macrophage markers CD11b and F4/80,ex vivo expanded GMPs,almost all the cells expressed both CD11b and F4/80
